The source of these data is doi:10.1101/2021.05.05.442573, “Relief of ParB autoinhibition by parS DNA catalysis and ParB recycling by CTP hydrolysis promote bacterial centromere assembly” (bioRxiv, 2021).

B1: ParB(R105C, H133C), purified (natural protein, B. subtilis, UniProt P26497 1-282, looked up)
chain: MAKGLGKGINALFNQVDLSEETVEEIKIADLRPNPYQPRKHFDDEALAELKESVLQHGILQPLIVRKSLKGYDIVAGERRFRAAKLAGLDTVPAIVRELSEALMCEIALLENLQREDLSPLEEAQAYDSLLKCLDLTQEQLAKRLGKSRPHIANHLRLLTLPENIQQLIAEGTLSMGHGRTLLGLKNKNKLEPLVQKVIAEQLNVRQLEQLIQQLNQNVPRETKKKEPVKDAVLKERESYLQNYFGTTVNIKRQKKKGKIEIEFFSNEDLDRILELLSERES
notes: Purification as in Soh et al., 2019; source: E. coli BL21-Gold (DE3), untagged, purified (ammonium sulfate, heparin, HiTrap SP, Superdex 200)
B2: ParB(T22C, E111Q), purified (natural protein, B. subtilis, UniProt P26497 1-282, looked up)
chain: B1 chain with T22C, C105R, E111Q, C133H
notes: the combination is not spelled out for the purified protein; also called EQ mutant; source: E. coli BL21-Gold (DE3), untagged, purified (ammonium sulfate, heparin, HiTrap SP, Superdex 200)
B3: ParB(T22C), purified (natural protein, B. subtilis, UniProt P26497 1-282, looked up)
chain: B1 chain with T22C, C105R, C133H
notes: as for B1
B4: ParB(T22C, E78Q), purified (natural protein, B. subtilis, UniProt P26497 1-282, looked up)
chain: B1 chain with T22C, E78Q, C105R, C133H
notes: as for B2
B5: ParB(A102C, H133C), purified (natural protein, B. subtilis, UniProt P26497 1-282, looked up)
chain: B1 chain with A102C, C105R
notes: as for B1

Residue numbers refer to the chain shown, from its start. In names and notes the source's numbering stands.

The data set concerns the molecule itself. Description: cross-linking; in vitro BMOE cysteine cross-linking of purified ParB (10 uM monomer, 1 mM BMOE, 5 min RT; 150 mM NaCl, 50 mM Tris-HCl pH 7.5, 5 mM MgCl2); without ligand, with 1 mM CTP or CTPγS, with 1 uM 40 bp parS DNA, or with both; SDS-PAGE, Coomassie.
For B1, the binding result was “binds”.
In the case of B2, the binding result is “binds”.
For B3 the value was “binds”.
For B4 the value was “binds”; for B5, “binds”.
